The source of these data is patent publication US20240287172A1 (SCIRHOM, published 2024).

Where only a bound is given, the exact number is not on record here.

One experiment deals with T1, hiR2-FL-N584A-T7 (human, UniProt Q6PJF5 1-856).
T1 sequence: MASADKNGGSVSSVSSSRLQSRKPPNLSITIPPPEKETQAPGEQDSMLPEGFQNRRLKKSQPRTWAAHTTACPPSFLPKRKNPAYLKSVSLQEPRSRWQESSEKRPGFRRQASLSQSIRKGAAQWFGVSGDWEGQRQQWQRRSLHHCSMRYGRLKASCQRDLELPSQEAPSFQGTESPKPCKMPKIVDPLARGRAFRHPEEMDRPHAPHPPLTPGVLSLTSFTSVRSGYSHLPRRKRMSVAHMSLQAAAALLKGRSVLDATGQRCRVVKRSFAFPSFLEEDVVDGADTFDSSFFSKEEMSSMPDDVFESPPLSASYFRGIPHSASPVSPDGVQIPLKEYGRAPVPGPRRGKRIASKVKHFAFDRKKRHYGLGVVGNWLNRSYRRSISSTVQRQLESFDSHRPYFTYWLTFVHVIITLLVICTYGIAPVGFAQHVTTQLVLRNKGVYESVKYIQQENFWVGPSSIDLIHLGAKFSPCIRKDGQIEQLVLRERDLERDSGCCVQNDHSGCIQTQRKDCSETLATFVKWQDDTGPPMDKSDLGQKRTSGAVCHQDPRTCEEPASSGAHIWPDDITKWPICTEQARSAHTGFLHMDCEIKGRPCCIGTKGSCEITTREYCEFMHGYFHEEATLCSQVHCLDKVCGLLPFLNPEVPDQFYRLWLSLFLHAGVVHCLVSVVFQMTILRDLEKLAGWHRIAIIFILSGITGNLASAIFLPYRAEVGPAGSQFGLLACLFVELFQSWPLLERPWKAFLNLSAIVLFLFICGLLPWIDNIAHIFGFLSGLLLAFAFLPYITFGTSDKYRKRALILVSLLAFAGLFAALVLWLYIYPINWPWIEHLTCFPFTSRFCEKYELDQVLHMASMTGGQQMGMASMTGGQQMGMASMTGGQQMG
The experiment in a line: FACS on MEF-DKO cells expressing the variant, 3 µg/ml antibody. The method in brief: (§1)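 Flow cytometry read-out of binding to variant-expressing cells after two-step staining on ice: 1 h with antibody at 3 μg/ml, then 1 h with PE-labelled goat anti-mouse IgG F(ab′)2 diluted 1:100. Controls received FACS buffer without primary antibody.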

A further experiment deals with T2, hiR2-FL-T555A-T7 (human, UniProt Q6PJF5 1-856).
T2 sequence: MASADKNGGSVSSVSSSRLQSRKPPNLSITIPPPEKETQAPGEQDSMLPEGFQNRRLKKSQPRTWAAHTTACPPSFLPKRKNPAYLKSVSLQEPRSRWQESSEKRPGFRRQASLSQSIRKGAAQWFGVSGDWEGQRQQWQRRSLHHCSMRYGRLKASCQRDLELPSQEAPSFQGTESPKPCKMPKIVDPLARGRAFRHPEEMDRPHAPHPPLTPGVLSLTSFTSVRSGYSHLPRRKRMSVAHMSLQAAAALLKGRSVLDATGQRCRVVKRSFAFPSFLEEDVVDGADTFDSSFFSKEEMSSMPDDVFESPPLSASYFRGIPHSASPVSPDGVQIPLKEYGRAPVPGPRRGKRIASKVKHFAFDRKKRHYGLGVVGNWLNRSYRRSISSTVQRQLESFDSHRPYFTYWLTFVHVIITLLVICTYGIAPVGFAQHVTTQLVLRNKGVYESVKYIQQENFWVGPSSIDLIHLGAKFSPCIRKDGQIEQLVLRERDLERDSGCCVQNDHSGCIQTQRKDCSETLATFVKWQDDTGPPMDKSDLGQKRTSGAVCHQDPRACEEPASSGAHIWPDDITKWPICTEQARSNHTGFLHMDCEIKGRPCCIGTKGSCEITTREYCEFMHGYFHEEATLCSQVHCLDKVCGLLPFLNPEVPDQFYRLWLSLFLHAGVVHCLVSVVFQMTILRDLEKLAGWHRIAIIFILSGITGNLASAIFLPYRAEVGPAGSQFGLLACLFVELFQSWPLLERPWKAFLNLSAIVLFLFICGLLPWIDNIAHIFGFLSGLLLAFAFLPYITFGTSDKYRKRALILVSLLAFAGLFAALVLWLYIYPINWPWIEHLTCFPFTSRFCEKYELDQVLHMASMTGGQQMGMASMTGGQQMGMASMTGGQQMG
The description is as above. The method in brief: as §1

B1: antibody 3 (antibody, V domains shown)
VH: QVTLKESGPGILQPSQTLSLTCSFSGFSLTTFAMGIGWVRQPSGKGLEWLAHIWWDGEKYNNPVLKSRLTISKDTSKNQVFLRIANVDTPDTATYYCARISSIYYIIDNWGQGTSVTVSS
VL: DIVLTQSPATLSVTPGHSVSLSCRASQSISNNLHWYQKKSHESPRLLIKYVSQSISGIPSRFSGSGSGTDFTLSINSVETEDFGMYFCQQSYNWPLTFGAGTKLELK
notes: mouse IgG, kappa light chain; also called clone #3; purified antibody 3
B1: the “loss of binding vs wild type” value with hiR2-FL-N584A-T7 and with hiR2-FL-T555A-T7 was ≥ 30% throughout.
